The text below walks through data of PMC2908525 (Molecular cell, 2010).

The data set concerns the molecule itself. Kind of data set: single-molecule TIRF microscopy of DNA looping.

B1: enhanced green fluorescent protein-MuB fusion (EGFP-MuB) (natural protein, bacteriophage Mu, UniProt P03763 1-312, looked up)
chain: MNISDIRAGLRTLVENEETTFKQIALESGLSTGTISSFINDKYNGDNERVSQMLQRWLEKYHAVAELPEPPRFVETQTVKQIWTSMRFASLTESIAVVCGNPGVGKTEAAREYRRTNNNVWMITITPSCASVLECLTELAFELGMNDAPRRKGPLSRALRRRLEGTQGLVIIDEADHLGAEVLEELRLLQESTRIGLVLMGNHRVYSNMTGGNRTVEFARLFSRIAKRTAINKTKKADVKAIADAWQINGEKELELLQQIAQKPGALRILNHSLRLAAMTAHGKGERVNEDYLRQAFRELDLDVDISTLLRN
Turning to B1, the binding result is “binds”.
